In FireProtDB (doi:10.1021/bi00493a013):
Several values for one entry are separate records, joined by “and”; a condition that tells them apart may be missing. Equal values may be shown once.

Conditions: Rattus norvegicus, pH 7.2, 20 °C, CD, Potassium phosphate 20 mM, reversible: yes, whole UniProt chain shown

B1: Fatty acid-binding protein, brain wild type, P55051 (protein)
chain: MVDAFCATWKLTDSQNFDEYMKALGVGFATRQVGNVTKPTVIISQEGGKVVIRTQCTFKNTEISFQLGEEFEETSIDDRNCKSVIRLDGDKLIHVQKWDGKETNCVREIKDGKMVVTLTFGDVVAVRCYEKA
In the case of B1, the denaturant m value (DimethylUrea, NaCl 1 M) is reported as 1.81 kcal/mol/M, the “denaturant midpoint (higher = more stable)” value (from here on “denaturant midpoint”) (DimethylUrea, NaCl 1 M) is reported as 5.36 M and the unfolding free energy (DimethylUrea, NaCl 1 M) is reported as 9.71 kcal/mol. The denaturant m value (GdnHCl) was 4.21 kcal/mol/M, the “denaturant midpoint” value (GdnHCl) was 1.33 M and the unfolding free energy (GdnHCl) was 5.58 kcal/mol. The denaturant m value (GdnSCN) was 14 kcal/mol/M, the “denaturant midpoint” value (GdnSCN) was 0.73 M and the unfolding free energy (GdnSCN) was 10.2 kcal/mol. For the same protein, the denaturant m value (Urea) was 1.82 kcal/mol/M and 2.17 kcal/mol/M, the “denaturant midpoint” value (Urea) was 5.43 M and 5.79 M and the unfolding free energy (Urea) was 9.91 kcal/mol and 12.6 kcal/mol.
